Reference: the supplement of paper PMC9942255
Values joined by “and” are separate entries in the source; they are usually repeats but may differ in a detail not shown here. Equal entries are not always repeated.

Test system: Bacillus subtilis DB104 (SP-AmyQ fusion secretion)
Experiment: AmyQ secretion efficiency, weighted average sort bin (1 = best secretion, 10 = worst) (bin number (weighted average, 1-10)); higher = lower secretion efficiency
In short: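 The secretion score was taken as the read-frequency-weighted mean bin number, normalised to beads per bin, with low-abundance sequences excluded. Bins came from large-particle flow cytometry sorting of occupied alginate beads (~65 nL, about 0.3 cells each, with fluorescein-starch) into 10 equally populated groups by green/red fluorescence ratio after about 13 h at room temperature and nile red staining. The cells were a B. subtilis DB104 library with mature AmyQ fused to designed signal peptides, integrated at amyE, and each bin's amplicons were Illumina-sequenced.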

Sequence: MKKWIYVVLVLSIAGIGGFSVHKASS
- AmyQ secretion efficiency: 4.97

Sequence: MFMMLGSLLITAGILVFFAVVVKDVFAAGL
- AmyQ secretion efficiency: 6.51

Sequence: MTKKAWFLPLVCVLLISGWLAPAASISAQTT
- AmyQ secretion efficiency: 2.33

Sequence: MKKGIIRKTLVSFVLFFALSTGITGVQAAPA
- AmyQ secretion efficiency: 2

Sequence: MKRRRQRQTTLPLLIVCLAFSSFSASARAASE
- AmyQ secretion efficiency: 3.83

Sequence: MFKKHTISLLIIFLLASAVLAKPIEADEE
- AmyQ secretion efficiency: 3.49

Sequence: MKKWIYVVLVLSIAGIGGFSVHAAED
- AmyQ secretion efficiency: 5.68

Sequence: MAIIIAIIAAVIVIAALITFNVRNASPE
- AmyQ secretion efficiency: 6.75

Sequence: MITAAAVLLSLGLVFGFSYGAGHVAEAKTK
- AmyQ secretion efficiency: 3.09

Sequence: MRPVFPLILSAVLFLSCFFGARQTEASMSKR
- AmyQ secretion efficiency: 2.44

Sequence: MTMLRKIIGWILLLCIIPLFAFTVIMSGKEV
- AmyQ secretion efficiency: 7.42

Sequence: MKKRLIGFLVLVPALIEDEEELIEANKK
- AmyQ secretion efficiency: 7.82

Sequence: MKLRKMVLTGSVLSLGLLVSASPAFATSP
- AmyQ secretion efficiency: 1.54

Sequence: MNLRKILLSSALSLGMLVSAAPVLATSE
- AmyQ secretion efficiency: 1.92

Sequence: MKKQIITATTAVVLGSTLFARKKRKKASAQSI
- AmyQ secretion efficiency: 7.27

Sequence: MLTKRLLTIYIMLLGLIAWFPGAAQAKRK
- AmyQ secretion efficiency: 6.07

Sequence: MYKGWLIQFAVMLSVLSTFTYSASAVGV
- AmyQ secretion efficiency: 5.73

Sequence: MKKIGLLFMLCLAALFTIGFPAQQADAAED
- AmyQ secretion efficiency: 2.02

Sequence: MRNLTKTSLLLAGLCTAAQMVFVTHVSAEES
- AmyQ secretion efficiency: 3.09

Sequence: MLKKKWMVGLLAGCLAAGVALALSGFSYNAFATEN
- AmyQ secretion efficiency: 5.02

Sequence: MTKKAWFLPLVCVLLISGWLAPAASASQQTT
- AmyQ secretion efficiency: 2.02

Sequence: MKKSQYFIVFICFFVLFSVHPIATAAADS
- AmyQ secretion efficiency: 3.6

Sequence: MKKIGLLFMLCLAALKKRRFPAQQADAAEA
- AmyQ secretion efficiency: 7.17

Sequence: MKRLLSTLLIGIMLLTFAPSAFCKQD
- AmyQ secretion efficiency: 2.6

Sequence: MKRKKLLVSLRVWMVFLMNWVTPDRKTAAAAVY
- AmyQ secretion efficiency: 7.43

Sequence: MAIIIAIIAAVIVIAALITFNVMNASPG
- AmyQ secretion efficiency: 6.23

Sequence: MKKKLAAGLTASAIVGTTLVVTPPTAPGGAEAATI
- AmyQ secretion efficiency: 6.5

Sequence: MTVPITMLLSTAAGLLLSLTATSVSAHYV
- AmyQ secretion efficiency: 6.06

Sequence: MRPVFPLILSAVLFLSCFFGARQTEASWSKR
- AmyQ secretion efficiency: 4.13

Sequence: MLSIWIGMLAAAVLLLMVPKVSLADAA
- AmyQ secretion efficiency: 6.86

Sequence: MPIKKKVMMCLAVTLVFGSMSFPTLTNSGGDED
- AmyQ secretion efficiency: 6.4

Sequence: MKKKMLNLFLAAGLTASAIVGTTLVVTPAEAATI
- AmyQ secretion efficiency: 4.26

Sequence: MIAYFGKCRKRRTIMFLGVLFGMQQANHG
- AmyQ secretion efficiency: 4.01

Sequence: MKKAAAVLLSLGLVFGFSYGAGHVAELKTK
- AmyQ secretion efficiency: 6.97

Sequence: MKKVLMAFIICLSLILSVLAAPPSGDKAESV
- AmyQ secretion efficiency: 5.71

Sequence: MRKAVFVIMISFLIATVNVNTAHAAID
- AmyQ secretion efficiency: 3.36

Sequence: MKKIVSILFMFGLVMGFSQFQPSTVFADED
- AmyQ secretion efficiency: 4.03

Sequence: MKKVLMAFIICLSLILEDDDEEDSGAKAESV
- AmyQ secretion efficiency: 4.1

Sequence: MKLSVKIAGVLTVAAAAMTAKMYDTAKGN
- AmyQ secretion efficiency: 4.44

Sequence: MRKTIFAFLTGLMMFGTITAASKSPD
- AmyQ secretion efficiency: 6

Sequence: MKRLCLWFTVFSLFLVLLPGKALGKKR
- AmyQ secretion efficiency: 2.36

Sequence: MKKRITLLALLAVVAFAFTDSSKAKAAEA
- AmyQ secretion efficiency: 3.06

Sequence: MKKRRRRIAMLILAGIALFVFISPLKSHKT
- AmyQ secretion efficiency: 6.26

Sequence: MKFVKRRIIALVTILMLSVTSLFAKKRRRAKAAEH
- AmyQ secretion efficiency: 7.85

Sequence: MKRLLVSLRVWMVFLMNWVTPDRKTRAAAVY
- AmyQ secretion efficiency: 6.54

Sequence: MKIRKILLSSALSFGMLEDDDEDALAAGT
- AmyQ secretion efficiency: 5.74

Sequence: MKKAFLVFLSVVLVTTVFLVKQQESVDQAKQL
- AmyQ secretion efficiency: 5.67

Sequence: MKKWMAGLFLAAAVLLCLMVPQQIQGASS
- AmyQ secretion efficiency: 4.93 and 4.6 and 5.33

Sequence: MKKLLAAGIIGLLTVSIASPLFAAEK
- AmyQ secretion efficiency: 3.02

Sequence: MKKAFILSAAAAVGLFTFKKKRRRASAKEL
- AmyQ secretion efficiency: 7.21

Sequence: MKRLLVSLRVWMVFLMNWVTVGRKTAAAAVY
- AmyQ secretion efficiency: 5.77

Sequence: MSSGTVIASILLSFLSVLSGGHHESKAFPV
- AmyQ secretion efficiency: 6.28

Sequence: MRKKRGYRCGMAASLTLGSLLPAGYASAKED
- AmyQ secretion efficiency: 6.63

Sequence: MKKKQVMLALTAAAGLGLTALHKRPAAKAAPL
- AmyQ secretion efficiency: 6.71

Sequence: MRGKSAVLLSLIMLIAGFLITASFPTVTGPPFSFSFQM
- AmyQ secretion efficiency: 8.88

Sequence: MKSKGSIMACLILFSFTITTFINTETWSAFSN
- AmyQ secretion efficiency: 7.56

Sequence: MSTTIIITATTAVVLGSTLFAGAASAQSI
- AmyQ secretion efficiency: 2.61

Sequence: MKRLCKKRKVFSLFLVLLPGKALGAVD
- AmyQ secretion efficiency: 7.25

Sequence: MKKRLIAPMLLSAASLAFFAMSGSAQARKK
- AmyQ secretion efficiency: 5.79

Sequence: MKQTMIFLTSFMLLAMTGQTALAKDV
- AmyQ secretion efficiency: 3.23

Sequence: MKKRKRRNFKRFIAAFLVLALMISLVPADVLAAKR
- AmyQ secretion efficiency: 5.17

Sequence: MTMKLKWLSFLLGFIILLFLFKYQFSNNDS
- AmyQ secretion efficiency: 7.21

Sequence: MKRTWNVCKRALLSVLLVAGSVPFHAEAKKP
- AmyQ secretion efficiency: 3.1

Sequence: MKKKQVMLALTAAAGLGLTALHSAPAAKEAPL
- AmyQ secretion efficiency: 6.66

Sequence: MKVCQKSIVRSQRSLIIGTFVISVPFMANAQSD
- AmyQ secretion efficiency: 5.65

Sequence: MKRLFMKASLVLFAVVFVFAVKGAKRAKAETH
- AmyQ secretion efficiency: 2.04

Sequence: MLTFLWMVGLLAGCLAAGGFSYNAFATEN
- AmyQ secretion efficiency: 7.84

Sequence: MKKTIMSFKRKKALSTTAFGAHASAKEI
- AmyQ secretion efficiency: 7.79

Sequence: MKRKLLSSLAISALSLGLLVSAPTASFADDE
- AmyQ secretion efficiency: 5.75

Sequence: MKRIRIPMTLALGAALTIAPLSFHSAEEN
- AmyQ secretion efficiency: 7.02

Sequence: MKRSISIFITCLLITLLTMGGMIASPASTAGT
- AmyQ secretion efficiency: 4.46

Sequence: MKRIRIPMTLALGAALTIAPLSFASAAPK
- AmyQ secretion efficiency: 1.85

Sequence: MLTKRLLTIYIMLLGLIFLVALAWFPGAAQAEEK
- AmyQ secretion efficiency: 4.8

Sequence: MKKKRLLLATSALTFSLSLVLPLDGHAKAQEV
- AmyQ secretion efficiency: 2.9

Sequence: MAIIIAIIAAVIVIAALITFNVRNCSPG
- AmyQ secretion efficiency: 5.87

Sequence: MKRILFLLSTLLIGIMLLTFAPSAFAKQD
- AmyQ secretion efficiency: 1.83

Sequence: MLKKKWMVGLLAGCLAAGGFSYNDFATEN
- AmyQ secretion efficiency: 5.83

Sequence: MKKSQYFIVFICFFVLFSVHPIAAACADS
- AmyQ secretion efficiency: 4.69

Sequence: MKKAAAVLLSLGLVFEDEDEAGHVAEAKTK
- AmyQ secretion efficiency: 5.2

Sequence: MLMKVILAAFILVGSTLGAFSFSSDASAKHV
- AmyQ secretion efficiency: 2

Sequence: MAIIIAIIAAVIVIAALITFNVLNASPG
- AmyQ secretion efficiency: 6.68

Sequence: MKKVLMAFIICLSLILSVLAAPPSGAKLESV
- AmyQ secretion efficiency: 8.94

Sequence: MRSKKLLFTLWISLLFALTLIFTMAFSNMSAQAAGK
- AmyQ secretion efficiency: 2.87

Sequence: MRFTKVVGFLSVLGLAAVFPLTTQAEKA
- AmyQ secretion efficiency: 4.74

Sequence: MKKGIIRFLLVSFVLFFALSTGITGVQCAPA
- AmyQ secretion efficiency: 6.36

Sequence: MKRIRIPMTLALGAALTIAPLSFASSEEN
- AmyQ secretion efficiency: 4.71

Sequence: MRKKRVKRCVMAASLTLGSLLPAGYASAKED
- AmyQ secretion efficiency: 3.34

Sequence: MKLSVKIAGVLTVAAAAMTAKMYQTAKGN
- AmyQ secretion efficiency: 7.71

Sequence: MTKKAWFLPLVCVLLISGWLAPAASASAQTK
- AmyQ secretion efficiency: 1.59

Sequence: MKKKKRYSQRFLVALTMCGGLFVTPAKAVKT
- AmyQ secretion efficiency: 6.94

Sequence: MSLNKRVSMFLVALTMCGGLFVTPAKAVKT
- AmyQ secretion efficiency: 2.92

Sequence: MSIWIVLFLVLIAAAISIFVYVSTGSEK
- AmyQ secretion efficiency: 6.85

Sequence: MKNMSCKLVVSVTLFFSFLTIGPLAHYQNS
- AmyQ secretion efficiency: 6.66

Sequence: MRPVFPLILSAVLFLSCFFGARQTEASGSKR
- AmyQ secretion efficiency: 1.87

Sequence: MKLKKRVSMYTQALTMCGGLFVTPAKAVKT
- AmyQ secretion efficiency: 5.95

Sequence: MKKQIITATTAVVLGSTLFAGAASGQSI
- AmyQ secretion efficiency: 2.03

Sequence: MILTKVLTGSVLSLGLLVSASPAFATSP
- AmyQ secretion efficiency: 1.75

Sequence: MKKRKVLMAFIICLSLILSVLAAPPSGAKAESV
- AmyQ secretion efficiency: 1.28

Sequence: MNLRKILLSSALSLGMLVSAAPVLARKR
- AmyQ secretion efficiency: 5.51

Sequence: MKKIVSILFMFGLVMFFFTFTAIGVFAADK
- AmyQ secretion efficiency: 4.52

Sequence: MKVLLSALLLLLFAFEPSFSGKKL
- AmyQ secretion efficiency: 8.07

Sequence: MRFTKVVGFLSVLGLAAVFPLTAQAAPK
- AmyQ secretion efficiency: 1.91

Sequence: MNKPTKQRTKLALAAGMTAAAAGGAGTIHAQQP
- AmyQ secretion efficiency: 6.94

Sequence: MKSKGSIMACKKKKSFTITTFINTETISAFSN
- AmyQ secretion efficiency: 7.29

Sequence: MKVPKTMYQRRQAGLLLSLTATSVSAHYV
- AmyQ secretion efficiency: 6.61

Sequence: MKVLLSALLLLLFAFEPSASPKKL
- AmyQ secretion efficiency: 2.66

Sequence: MFNRLFRVCFLAALIMAFTLPNSQYAQKP
- AmyQ secretion efficiency: 7.49

Sequence: MKSKGSIMACLILFSFTITTFINTETCSAFSN
- AmyQ secretion efficiency: 4.49

Sequence: MKKTIMSFVAVAALSTTAFGAHLSAKEI
- AmyQ secretion efficiency: 2.5

Sequence: MMKKLFHSTLIVLLFFSFFGVIPIHAKKQ
- AmyQ secretion efficiency: 1.92

Sequence: MFKKHTISLLIIFLLASAVLAKPSEAHTV
- AmyQ secretion efficiency: 2.57

Sequence: MKKVLMAFIICLSLILSVLAAPPSGGKAESV
- AmyQ secretion efficiency: 5

Sequence: MKRIRIPMTLALGAALTIAPLSFASQEEN
- AmyQ secretion efficiency: 7.06

Sequence: MKKAAAVLLSLGLVFKFSYGAGHVAEAKTK
- AmyQ secretion efficiency: 3.2

Sequence: MGLGKKLSVAVAASFMSLSISLPGVQQAEG
- AmyQ secretion efficiency: 3.24

Sequence: MKWMCSICCAAVLLAGGAKQAEAV
- AmyQ secretion efficiency: 2.68

Sequence: MKWMCSICCAAVLLAGGASFFGTFGPGTTAQAEAV
- AmyQ secretion efficiency: 4.06

Sequence: MTMLRKIIGWILLLCIIPLFAFTVIASNKEV
- AmyQ secretion efficiency: 5.99

Sequence: MRSYIKVLTMCFLGLILFVPTALAAND
- AmyQ secretion efficiency: 2.11

Sequence: MKKTGIRFLLVSFVLFFALSTGITGVQAAPA
- AmyQ secretion efficiency: 1.8

Sequence: MLKKVRKRRKKLVGSTLGAFSFSSDASAKHV
- AmyQ secretion efficiency: 6.7

Sequence: MRKKRVITCVMAASLTLGSLLPAGYATAAPR
- AmyQ secretion efficiency: 1.69

Sequence: MNLRKILLSSALSLGMLVSAAPVLETSS
- AmyQ secretion efficiency: 7.05

Sequence: MKKVMLATALFLGLTPDGANAADL
- AmyQ secretion efficiency: 4

Sequence: MKKAFILSAAAAVGLFTFEEDEDEASAKEL
- AmyQ secretion efficiency: 4.76

Sequence: MTMLRKIIGWILLLCIIPLFAFTVIDSGKEV
- AmyQ secretion efficiency: 6.22
